These results are taken from US11534528B2, “Sterilization of self-assembling peptides by irradiation” (3-D Matrix, Ltd., priority 2020, dated 2022).

The nature of data set [1]: Mass spectrometry test for degradation of the peptides. The data set is classed as physicochemical. How it is done:
(§1) Mass spectrometry tests were carried out to investigate the degradation of the peptides after irradiation sterilization. An Agilent LC/MSD ion trap mass spectrometer was used for this study. The sample solutions were prepared as described above for the HPLC samples. Each sample was injected at 9 μL/min with a syringe pump. Each mass spectrum was recorded for 1 minute.
as §1, with “sterilization.” for “sterilization. An”, “Mass” for “Each mass”, “minute. The molecular weight of PuraStat® (Ac-(RADA)4-NH2) (SEQ ID NO:1) is 1712, which matches its calculated molecular weight from the major three peaks at m/3=572, m/2=857, and m=1713 in all the spectra of control and irradiated PuraStat® samples.” for “minute.”

For data set [2] the following is noted: RADA16 in solution; cited from earlier work.
A short description of data set [3]: HPLC test for major peptide content. The data set is classed as physicochemical. Particulars: N = 3, mean ± SD. How it is done:
HPLC tests were performed to evaluate the major peptide content after irradiation tests. An Agilent HPLC 1100 (Agilent Technologies) was used for this study. The column temperature was kept at 25° C.
For RADA16 (SEQ ID NO:1) samples, solvent A was water with 0.1% TFA and solvent B was 80% acetonitrile with 0.1% TFA. Gradient of solvent B was controlled from 10% to 40% in 20 min and 40% for another 5 min at 25° C. Agilent Zorbax 300SB-C18 column (4.6 mm×250 mm, 5 μm, 300 Å) was used for this test. PuraStat® (RADA16 (SEQ ID NO:1) 2.5%) (40 mg) was mixed with 10 μL of DH2O and the mixture was vortexed. The mixture was further mixed with 500 μL of formic acid and vortexed. This mixture was then mixed with DH2O (4,450 μL) and vortexed. 20 μL samples were injected using an Agilent autosampler.
For IEIK13 (SEQ ID NO:3) samples, solvent A was water with 0.1% TFA and solvent B was 90% Acetonitrile with 0.1% TFA. The gradient of solvent B was controlled from 20% to 43% in 8 min, from 43% to 70% between 8 and 9.5 min, and from 70% to 95% between 9.5 and 30 min, and 95% for another 5 min at 25° C. An Agilent PLRP-S column (4.6 mm×250 mm, 8 μm, 300 Å) was used for this test. A 1.3% solution of IEIK13 (SEQ ID NO:3) was diluted with water with 0.1% TFA to 0.075% and the mixture was vortexed. 35 μL samples were injected using an Agilent autosampler.
For QLEL12 (SEQ ID NO:4) samples, solvent A was water and solvent B was 80% acetonitrile. The gradient of solvent B was controlled from 20% to 80% in 15 min and 80% for another 7 min at 25° C. An Agilent PLRP-S column (4.6 mm×250 mm, 8 μm, 300 Å) was used for this test. 0.15% w/v of QLEL12 (SEQ ID NO:4) solution was diluted to 0.01% with DH2O and vortexed. 50 μL samples were injected using an Agilent autosampler.
(§2) Methods and test results: The appearance of PuraStat® was observed after each test. The pH of PuraStat® was tested using an Accumet AB15 pH meter (Fisher Scientific). HPLC tests were performed to evaluate the major peptide content after irradiation tests. Agilent HPLC 1100 (Agilent Technologies) was used for this study. Column temperature was kept at 25° C.
Solvent A was water with 0.1% TFA and solvent B was 80% Acetonitrile with 0.1% TFA. Gradient of solvent B was controlled from 10% to 40% in 20 min and 40% for another 5 min at 25° C. Agilent Zorbax 300SB-C18 column (4.6 mm×250 mm, 5 μm, 300 Å) was used for this test. PuraStat® (RADA16 (SEQ ID NO:1) 2.5%) (40 mg) were mixed with 10 μL of DH2O and 500 μL of formic acid and vortexed. And the mixture was mixed with DH2O (4,450 μL) and vortexed. 20 μL of samples were injected using an Agilent autosampler.
Agilent HPLC 1100 (Agilent Technologies) was used for this study. Column temperature was kept at 25° C. Agilent Zorbax 300SB-C18 column (4.6 mm×250 mm, […], 300 Å) was used for this test. Solvent A was water with 0.1% TFA and solvent B was 80% Acetonitrile with 0.1% TFA. Gradient of solvent B was controlled from 10% to 40% in 20 min and 40% for another 5 min at 25° C. PuraStat® (40 mg) was mixed with 10 μL of DH2O and 500 μL of formic acid and vortexed, and the mixture was mixed with DH2O (4,450 μL) and vortexed. […] of samples were injected using an Agilent autosampler.

Data set [4] is described as follows: Appearance of peptide solution before and after irradiation. The data set is classed as physicochemical. The settings on record: for appearance and pH, summary: after gamma, X-ray and e-beam irradiation at around 25~40 kGy. How it is done: (§3) Samples were irradiated with gamma rays at 23, 25, 28 and 40 kGy with VPTrad Gammacell 220® High Dose Rate Co-60 Irradiator. In some embodiments, the run dose rate and duration time for 40 kGy irradiation were 6.30 kGy/hr and 6 hours 20 minutes 58 seconds, respectively. In other embodiments, the run dose rate and duration time for 28 kGy irradiation were 4.40 kGy/hr and 6 hours 22 minutes 31 seconds, respectively. In other embodiments, the run dose rate and duration time for 25 kGy irradiation were 6.58 kGy/hr and 3 hours 47 minutes 42 seconds, respectively. In other embodiments, the run dose rate and duration time for 23 kGy irradiation were 6.58 kGy/hr and 3 hours 29 minutes 29 seconds, respectively.
(§4) In other embodiments, samples were irradiated with X-ray at 25 kGy and 40 kGy with a Mevex accelerator (10 MeV, 20 kW).
(§5) In other embodiments, samples were irradiated with e-beam at 25 and 40 kGy with a Mevex accelerator (10 MeV, 20 kW).
as §2

Data set [5] is described as follows: pH of peptide solution before and after irradiation. The data set is classed as physicochemical. As for the experimental part:
as §3, §4, §5, §2

Where [6] appears, read: after gamma, X-ray or e-beam irradiation.

“And” between values parts separate entries of the source, which are not always exact repeats. Identical values can stand only once.

As to Ac-RADARADARADARADA-NH2 [RADA16], the “degradation by mass spectrometry analysis” value in data set [1] (setting [6]) is on record as “not degraded”; in data set [1] (autoclave treatment (121° C. for 20 min)), “completely degraded”. Moreover, in data set [2], the degradation on autoclaving entry was “complete thermal degradation”. The “Major peptide content (%)” value in data set [3] (X-ray irradiation at 25 kGy) is 73.8%; in data set [3] (X-ray irradiation at 40 kGy), 71.9%; in data set [3] (control, not irradiated), 78.3%; in data set [3] (e-beam irradiation at 25 kGy), 76.0%; in data set [3] (e-beam irradiation at 40 kGy), 70.0%; in data set [3] (gamma irradiation at 23 kGy) it was 75.5%. The “Major peptide content (%)” value in data set [3] (gamma irradiation at 25 kGy) was 74.6%; in data set [3] (gamma irradiation at 28 kGy), 68.5%; in data set [3] (gamma irradiation at 40 kGy), 69.7%. For the same substance, the “appearance and pH, summary” value in data set [4] is recorded as “remained unchanged”.

As for Ac-IEIKIEIKIEIKI-NH2 [IEIK13], in data set [1] (setting [6]), the “degradation by mass spectrometry analysis” value is reported as “only insubstantially degraded”. For the same substance, the “Major peptide content (%)” value in data set [3] (X-ray irradiation at 25 kGy) was 99.8% and 99.8 ± 0.1%; in data set [3] (X-ray irradiation at 40 kGy), 99.9% and 99.9 ± 0.1%; in data set [3] (control, not irradiated) it was 99.6% and 99.6 ± 0.0%; in data set [3] (e-beam irradiation at 25 kGy), 99.6% and 99.6 ± 0.2%; in data set [3] (e-beam irradiation at 40 kGy) it was 99.8% and 99.8 ± 0.1%; in data set [3] (gamma irradiation at 40 kGy), 99.8% and 99.8 ± 0.2%. In addition, the Appearance result is “Clear and viscous” in data set [4] (X-ray irradiation at 25 kGy); “Clear and viscous” in data set [4] (X-ray irradiation at 40 kGy); “Clear and viscous” in data set [4] (control, not irradiated); “Clear and viscous” in data set [4] (e-beam irradiation at 25 kGy); “Clear and viscous” in data set [4] (e-beam irradiation at 40 kGy); “Clear and viscous” in data set [4] (gamma irradiation at 28 kGy). The Appearance result in data set [4] (gamma irradiation at 40 kGy) is “Clear and viscous”. Moreover, the “appearance and pH, summary” value in data set [4] is on record as “remained unchanged”. The pH in data set [5] (X-ray irradiation at 25 kGy) was determined as 3.0; in data set [5] (X-ray irradiation at 40 kGy) it was 3.0; in data set [5] (control, not irradiated) it was 3.0; in data set [5] (e-beam irradiation at 25 kGy), 3.0; in data set [5] (e-beam irradiation at 40 kGy), 3.0; in data set [5] (gamma irradiation at 28 kGy), 3.0. The same substance came in with a pH in data set [5] (gamma irradiation at 40 kGy) of 3.0.

In the case of “Ac-KLDLKLDLKLDL-NH2 [KLD12, self-assembling peptide]”, the Appearance result in data set [4] (X-ray irradiation at 25 kGy) is “Clear and viscous”; in data set [4] (X-ray irradiation at 40 kGy) it was “Clear and viscous”; in data set [4] (control, not irradiated), “Clear and viscous”; in data set [4] (e-beam irradiation at 25 kGy) it was “Clear and viscous”; in data set [4] (e-beam irradiation at 40 kGy), “Clear and viscous”; in data set [4] (gamma irradiation at 40 kGy) it was “Clear and viscous”. In addition, the “appearance and pH, summary” value in data set [4] is listed as “remained unchanged”. Moreover, the pH in data set [5] (X-ray irradiation at 25 kGy) was found to be 2.2; in data set [5] (X-ray irradiation at 40 kGy), 2.2; in data set [5] (control, not irradiated), 2.2; in data set [5] (e-beam irradiation at 25 kGy), 2.2; in data set [5] (e-beam irradiation at 40 kGy), 2.2; in data set [5] (gamma irradiation at 40 kGy), 2.2.

Consider “Ac-QLELQLELQLEL-NH2 [QLEL12, self-assembling peptide, degraded by irradiation]”, for which the “degradation by mass spectrometry analysis” value in data set [1] (setting [6]) is “significantly degraded”. Besides, the “Major peptide content (%)” value in data set [3] (X-ray irradiation at 25 kGy) was 57.0% and 57.0 ± 4.9 %; in data set [3] (X-ray irradiation at 40 kGy), 47.3% and 47.3 ± 1.3 %; in data set [3] (control, not irradiated), 90.5% and 90.5 ± 1.3%; in data set [3] (e-beam irradiation at 25 kGy), 51.9% and 51.9 ± 7.3 %; in data set [3] (e-beam irradiation at 40 kGy), 55.6% and 55.6 ± 3.0 %; in data set [3] (gamma irradiation at 40 kGy) it was 40.7% and 40.7 ± 3.1 %. Besides, the Appearance result was “Clear and watery” in data set [4] (X-ray irradiation at 25 kGy); “Clear and watery” in data set [4] (X-ray irradiation at 40 kGy); “Clear and viscous” in data set [4] (control, not irradiated); “Clear and watery” in data set [4] (e-beam irradiation at 25 kGy); “Clear and watery” in data set [4] (e-beam irradiation at 40 kGy); “Clear and watery” in data set [4] (gamma irradiation at 23 kGy). Moreover, the Appearance entry in data set [4] (gamma irradiation at 25 kGy) was “Clear and watery”; in data set [4] (gamma irradiation at 40 kGy) it was “Clear and watery”. The pH in data set [5] (X-ray irradiation at 25 kGy) stood at 6.3; in data set [5] (X-ray irradiation at 40 kGy) it was 5.9; in data set [5] (control, not irradiated), 7.0; in data set [5] (e-beam irradiation at 25 kGy), 6.6; in data set [5] (e-beam irradiation at 40 kGy), 6.5; in data set [5] (gamma irradiation at 23 kGy), 6.7. Moreover, the pH in data set [5] (gamma irradiation at 25 kGy) came to 6.5; in data set [5] (gamma irradiation at 40 kGy), 5.9.
